Measurements published in patent US20200277406A1 (ROCHE DIAGNOSTICS OPERATIONS, published 2020).
Values joined by “and” are separate entries in the source; they are usually repeats but may differ in a detail not shown here. Identical values can stand only once.

T1: IGF-1R(1340-1366)amid (C-terminal amide)
T1 construct: also called IGF-1R peptide; non-phosphorylated IGF-1R peptide (free in solution)
T1 peptide: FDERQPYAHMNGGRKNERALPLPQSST

T2: pIGF-1R(1340-1366)[1346-pTyr]amid (phosphotyrosine at 1346 (1346-pTyr); C-terminal amide)
T2 construct: also called pIGF-1R peptide; phosphorylated IGF-1R peptide (free in solution)
T2 peptide: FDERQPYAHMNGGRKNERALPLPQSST

T3: IGF-1R(1340-1366); Glu(Bi-PEG-1340]amid (not fully specified; biotin-PEG linker bound via glutamic acid corresponding to position 1340; C-terminal amide)
T3 construct: also called IGF-1R peptide; non-phosphorylated IGF-1R peptide (biotinylated)
T3 peptide: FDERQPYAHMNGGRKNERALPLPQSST

T4: IGF-1R(1340-1366)[1346-pTyr; Glu(Bi-PEG-1340]amid (not fully specified; phosphotyrosine at 1346 (1346-pTyr); biotin-PEG linker bound via glutamic acid corresponding to position 1340; C-terminal amide)
T4 construct: also called pIGF-1R peptide; phosphorylated IGF-1R peptide (biotinylated)
T4 peptide: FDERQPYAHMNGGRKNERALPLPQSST


How the values were obtained:
[1] = target: T1, IGF-1R(1340-1366)amid; test: SPR (Biacore 3000, SA sensor, 25 °C): ssFab′ hybridised on the captured biotinylated T40-Bi linker (linker 10), peptide injected in solution
Procedure: (§1) 124 RU amino-PEO-biotin were captured on the reference flow cell 1.
(§2) As a control, buffer was injected instead of the ssFabs.
(§3) The dissociation was monitored at 50 μl/min for 5.3 min. The system was regenerated after each concentration step with a 12 sec pulse of 250 mM NaOH and was reloaded with ssFab′ ligand.

[2] = target: T2, pIGF-1R(1340-1366)[1346-pTyr]amid; test: as above
Procedure: as §1, §2, §3

[3] = target: T2, pIGF-1R(1340-1366)[1346-pTyr]amid; test: SPR (Biacore 3000, 25 C), dual binder on biotinylated linker on SA chip, peptide in solution; T40-Bi linker (spacer T20-Biotin-dT-T20)
Procedure: (§4) A BIACORE™ 3000 instrument (GE Healthcare) was used with a BIACORE™ SA sensor mounted into the system at T=25° C. The system was preconditioned at 100 μl/min with 3 ×1 min injection of 1 M NaCl in 50 mM NaOH and 1 min 10 mM HCl.
as §1, §2

[4] = target: T2, pIGF-1R(1340-1366)[1346-pTyr]amid; test: SPR (Biacore 3000, 25 C), dual binder on biotinylated linker on SA chip, peptide in solution; T0 linker (no thymidine spacer)
Procedure: as §4, §1, §2

[5] = target: T1, IGF-1R(1340-1366)amid; test: SPR (Biacore 3000, SA sensor, 25 °C): ssFab′ hybridised on the captured biotinylated T0-Bi 37-mer linker, peptide injected in solution
Procedure: as §1, §2, §3

[6] = target: T2, pIGF-1R(1340-1366)[1346-pTyr]amid; test: as above
Procedure: as §1, §2, §3

[7] = target: T3, IGF-1R(1340-1366); Glu(Bi-PEG-1340]amid; test: SPR (Biacore 2000, 25 C), immobilised biotinylated peptide, 100 nM ssFab′ in solution
Procedure: (§5) Subsequently biotinylated peptides were captured on the SA surface in the respective flow cells. […] Finally all flow cells were saturated with d-biotin.
(§6) Report points were set at the end of the analyte association phase (Binding Late, BL) and at the end of the analyte dissociation phase (Stability Late, SL) to monitor the response unit signal heights of each interaction. The dissociation rates kd (1/s) were calculated according to a linear 1:1 Langmuir fit using the BIACORE™ evaluation software 4.1. The complex halftimes in minutes were calculated upon the formula ln(2)/(60*kd).

[8] = target: T4, IGF-1R(1340-1366)[1346-pTyr; …; test: as above
Procedure: as §5, §6

Kd [1]	t1/2 diss [1] [min]	Kd [2]	Kd [3] [nM]	Kd [4] [nM]	Kd [5]	t1/2 diss [5] [min]	Kd [6]	t1/2 diss [6] [min]	T1/2 dis [7] [min]	T1/2 dis [8] [min]	Binder
0.973 nM and 1 nM	4.3	0.0125 nM	0.01	–	–	–	–	–	–	–	T40 dual binding agent (ssFab′ 8.1.2 and ssFab′ 1.4.168 on the T40-Bi linker, linker 10) (bispecific antibody, V domains shown, Fab′ hinge cysteine coupled to ssDNA) VH 1: EVQLQQSGPALVKPGASVKMSCKASGFTFTSYVIHWVKQKPGQGLEWIGYLNPYNDNTKYNEKFKGKATLTSDRSSSTVYMEFSSLTSEDSAVYFCARRGIYAYDHYFDYWGQGTSLTVSS VL 1: QIVLTQSPAIMSASPGEKVTLTCSASSSVNYMYWYQQKPGSSPRLLIYDTSNLASGVPVRFSGSGSVTSYSLTISRMEAEDAATYYCQQWSTYPLTFGAGTKLELK VH 2: QCDVKLVESGGGLVKPGGSLKLSCAASGFTFSDYPMSWVRQTPEKRLEWVATITTGGTYTYYPDSIKGRFTISRDNAKNTLYLQMGSLQSEDAAMYYCTRVKTDLWWGLAYWGQGTLVTVSA VL 2: QLVLTQSSSASFSLGASAKLTCTLSSQHSTYTIEWYQQQPLKPPKYVMELKKDGSHTTGDGIPDRFSGSSSGADRYLSISNIQPEDESIYICGVGDTIKEQFVYVFGGGTKVTVLG
–	–	–	–	0.03	1.2 nM and 1 nM	5	0.0344 nM	–	–	–	T0 dual binding agent (ssFab′ 8.1.2 and ssFab′ 1.4.168 on the T0-Bi 37-mer linker) (bispecific antibody, V domains shown, Fab′ hinge cysteine coupled to ssDNA) VH 1: EVQLQQSGPALVKPGASVKMSCKASGFTFTSYVIHWVKQKPGQGLEWIGYLNPYNDNTKYNEKFKGKATLTSDRSSSTVYMEFSSLTSEDSAVYFCARRGIYAYDHYFDYWGQGTSLTVSS VL 1: QIVLTQSPAIMSASPGEKVTLTCSASSSVNYMYWYQQKPGSSPRLLIYDTSNLASGVPVRFSGSGSVTSYSLTISRMEAEDAATYYCQQWSTYPLTFGAGTKLELK VH 2: QCDVKLVESGGGLVKPGGSLKLSCAASGFTFSDYPMSWVRQTPEKRLEWVATITTGGTYTYYPDSIKGRFTISRDNAKNTLYLQMGSLQSEDAAMYYCTRVKTDLWWGLAYWGQGTLVTVSA VL 2: QLVLTQSSSASFSLGASAKLTCTLSSQHSTYTIEWYQQQPLKPPKYVMELKKDGSHTTGDGIPDRFSGSSSGADRYLSISNIQPEDESIYICGVGDTIKEQFVYVFGGGTKVTVLG
1.1 nM and 1 nM	3	2.14 nM and 2 nM	–	–	1.35 nM and 1 nM	4	2.59 nM and 3 nM	4	3	3	ssFab′ 1.4.168 (Fab, V domains shown, hinge-region cysteine of the Fab′ coupled via maleimide to a fluorescein-labelled ssDNA oligonucleotide, Fab′ of murine mAb 1.4.168 (pepsin cleavage, cysteamine reduction), 1:1 conjugated to ssDNA; also called fluorescein-ssFab′ 1.4.168; ssFab′ 1.004.168) VH: DVKLVESGGGLVKPGGSLKLSCAASGFTFSDYPMSWVRQTPEKRLEWVATITTGGTYTYYPDSIKGRFTISRDNAKNTLYLQMGSLQSEDAAMYYCTRVKTDLWWGLAYWGQGTLVTVSA VL: QLVLTQSSSASFSLGASAKLTCTLSSQHSTYTIEWYQQQPLKPPKYVMELKKDGSHTTGDGIPDRFSGSSSGADRYLSISNIQPEDESIYICGVGDTIKEQFVYVFGGGTKVTVLG
